The assay concerns the target Wild-type ACE2(740)-Fc (human). Put plainly: BLI, ACE2-Fc on tips, RBD in solution. A general note: Biolayer interferometry detects binding as a change in optical thickness at a sensor tip.

This is an account of results in patent US20230257726A1 (published 2023).

Chain of Wild-type ACE2(740)-Fc (human) (chain, as listed by the source): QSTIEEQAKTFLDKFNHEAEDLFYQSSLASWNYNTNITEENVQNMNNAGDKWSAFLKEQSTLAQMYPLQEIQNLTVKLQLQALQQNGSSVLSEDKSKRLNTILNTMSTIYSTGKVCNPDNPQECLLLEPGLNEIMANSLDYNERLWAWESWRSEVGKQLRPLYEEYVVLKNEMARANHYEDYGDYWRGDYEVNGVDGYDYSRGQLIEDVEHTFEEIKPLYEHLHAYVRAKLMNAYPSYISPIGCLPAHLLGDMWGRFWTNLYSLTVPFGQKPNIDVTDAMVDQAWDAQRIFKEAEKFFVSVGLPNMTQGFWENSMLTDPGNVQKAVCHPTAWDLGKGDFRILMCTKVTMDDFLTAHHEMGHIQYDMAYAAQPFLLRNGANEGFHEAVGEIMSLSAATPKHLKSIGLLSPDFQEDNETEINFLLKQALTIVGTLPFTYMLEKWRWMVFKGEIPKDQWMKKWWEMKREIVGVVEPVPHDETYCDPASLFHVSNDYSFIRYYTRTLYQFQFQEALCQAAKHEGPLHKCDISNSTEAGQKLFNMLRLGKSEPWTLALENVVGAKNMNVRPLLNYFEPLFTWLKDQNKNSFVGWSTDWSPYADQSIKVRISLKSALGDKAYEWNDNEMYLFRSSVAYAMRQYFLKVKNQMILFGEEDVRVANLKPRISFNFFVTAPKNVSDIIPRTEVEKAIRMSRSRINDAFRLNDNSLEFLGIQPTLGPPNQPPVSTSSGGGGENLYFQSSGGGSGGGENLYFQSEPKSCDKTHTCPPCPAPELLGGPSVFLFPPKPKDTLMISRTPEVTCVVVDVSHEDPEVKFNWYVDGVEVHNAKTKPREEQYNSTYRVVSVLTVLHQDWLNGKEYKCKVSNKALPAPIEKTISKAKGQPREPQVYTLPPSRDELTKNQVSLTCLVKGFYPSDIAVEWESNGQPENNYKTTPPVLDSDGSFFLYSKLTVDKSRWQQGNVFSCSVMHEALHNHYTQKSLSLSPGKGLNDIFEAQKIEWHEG

B1: Human coronavirus NL63 (HCoV-NL63) spike RBD (ligand)
chain: QHTDINFTATASFGGSCYVCKPHQVNISLNGNTSVCVRTSHFSIRYIYNRVKSGSPGDSSWHIYLKSGTCPFSFSKLNNFQKFKTICFSTVEVPGSCNFPLEATWHYTSYTIVGALYVTWSEGNSITGVPYPVSGI
B1: the Kd worked out at 22 nM.

By Kd is commonly meant the free concentration of one partner at which half of the binding sites on the other are occupied at equilibrium, for simple one-to-one binding. A lower Kd goes with higher affinity.
